# Reference: patent US20260001928A1 (CORTERIA PHARMACEUTICALS, priority 2022, published 2026)
# *1 amine or outer side, *2 acyl side, *3 side chain or, on linkers, in order; H or OH if unused. Side-chain parts run from the residue outwards. [ ]: non-standard residue; d: D form. The star is where a group is joined. γGlu = O=C(O)[C@H](CCC(=O)[*:2])N[*:1]; C14 diacid = O=C(O)CCCCCCCCCCCCC(=O)*; Api = NC1(C(=O)O)CCNCC1; Aib = CC(C)(N)C(=O)O
# B1: SEQ ID NO 169 (peptide)
# peptide: Ac-IVLSLD[dV]PIKLK([γGlu-C14 diacid])KILLEQEKQKAQREQAETN[Api]QILAQV-NH2
# SMILES: CC[C@H](C)[C@H](NC(C)=O)C(=O)N[C@H](C(=O)N[C@@H](CC(C)C)C(=O)N[C@@H](CO)C(=O)N[C@@H](CC(C)C)C(=O)N[C@@H](CC(=O)O)C(=O)N[C@@H](C(=O)N1CCC[C@H]1C(=O)N[C@H](C(=O)N[C@@H](CCCCN)C(=O)N[C@@H](CC(C)C)C(=O)N[C@@H](CCCCNC(=O)CC[C@H](NC(=O)CCCCCCCCCCCCC(=O)O)C(=O)O)C(=O)N[C@@H](CCCCN)C(=O)N[C@H](C(=O)N[C@@H](CC(C)C)C(=O)N[C@@H](CC(C)C)C(=O)N[C@@H](CCC(=O)O)C(=O)N[C@@H](CCC(N)=O)C(=O)N[C@@H](CCC(=O)O)C(=O)N[C@@H](CCCCN)C(=O)N[C@@H](CCC(N)=O)C(=O)N[C@@H](CCCCN)C(=O)N[C@@H](C)C(=O)N[C@@H](CCC(N)=O)C(=O)N[C@@H](CCCNC(=N)N)C(=O)N[C@@H](CCC(=O)O)C(=O)N[C@@H](CCC(N)=O)C(=O)N[C@@H](C)C(=O)N[C@@H](CCC(=O)O)C(=O)N[C@H](C(=O)N[C@@H](CC(N)=O)C(=O)NC1(C(=O)N[C@@H](CCC(N)=O)C(=O)N[C@H](C(=O)N[C@@H](CC(C)C)C(=O)N[C@@H](C)C(=O)N[C@@H](CCC(N)=O)C(=O)N[C@H](C(N)=O)C(C)C)[C@@H](C)CC)CCNCC1)[C@@H](C)O)[C@@H](C)CC)[C@@H](C)CC)C(C)C)C(C)C
# B2: SEQ ID NO 170 (peptide)
# peptide: Ac-IVLSLD[dV]PIKLK([γGlu-C14 diacid])KILLEQEKQK[Aib]QREQAETN[Api]QILAQV-NH2
# SMILES: CC[C@H](C)[C@H](NC(C)=O)C(=O)N[C@H](C(=O)N[C@@H](CC(C)C)C(=O)N[C@@H](CO)C(=O)N[C@@H](CC(C)C)C(=O)N[C@@H](CC(=O)O)C(=O)N[C@@H](C(=O)N1CCC[C@H]1C(=O)N[C@H](C(=O)N[C@@H](CCCCN)C(=O)N[C@@H](CC(C)C)C(=O)N[C@@H](CCCCNC(=O)CC[C@H](NC(=O)CCCCCCCCCCCCC(=O)O)C(=O)O)C(=O)N[C@@H](CCCCN)C(=O)N[C@H](C(=O)N[C@@H](CC(C)C)C(=O)N[C@@H](CC(C)C)C(=O)N[C@@H](CCC(=O)O)C(=O)N[C@@H](CCC(N)=O)C(=O)N[C@@H](CCC(=O)O)C(=O)N[C@@H](CCCCN)C(=O)N[C@@H](CCC(N)=O)C(=O)N[C@@H](CCCCN)C(=O)NC(C)(C)C(=O)N[C@@H](CCC(N)=O)C(=O)N[C@@H](CCCNC(=N)N)C(=O)N[C@@H](CCC(=O)O)C(=O)N[C@@H](CCC(N)=O)C(=O)N[C@@H](C)C(=O)N[C@@H](CCC(=O)O)C(=O)N[C@H](C(=O)N[C@@H](CC(N)=O)C(=O)NC1(C(=O)N[C@@H](CCC(N)=O)C(=O)N[C@H](C(=O)N[C@@H](CC(C)C)C(=O)N[C@@H](C)C(=O)N[C@@H](CCC(N)=O)C(=O)N[C@H](C(N)=O)C(C)C)[C@@H](C)CC)CCNCC1)[C@@H](C)O)[C@@H](C)CC)[C@@H](C)CC)C(C)C)C(C)C
# Tests used:
# [1] = molecular target: T1, CRF1R receptor (UniProt P34998 24-415, limits assumed); assay: cell-based or functional assay
# T1 sequence (looked up): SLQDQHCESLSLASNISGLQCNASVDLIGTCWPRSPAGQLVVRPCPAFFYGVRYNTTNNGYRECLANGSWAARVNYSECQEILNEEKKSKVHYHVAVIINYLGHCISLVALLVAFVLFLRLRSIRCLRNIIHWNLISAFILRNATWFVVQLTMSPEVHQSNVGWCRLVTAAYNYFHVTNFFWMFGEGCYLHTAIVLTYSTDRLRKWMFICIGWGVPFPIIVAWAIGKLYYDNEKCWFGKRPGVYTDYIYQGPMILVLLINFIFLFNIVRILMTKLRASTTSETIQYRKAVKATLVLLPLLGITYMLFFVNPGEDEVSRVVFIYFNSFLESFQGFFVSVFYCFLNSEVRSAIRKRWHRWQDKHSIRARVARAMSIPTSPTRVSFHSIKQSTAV
# [2] = molecular target: human corticotropin-releasing factor 2a (CRF2a receptor) (human), Q13324; assay: cell-based or functional assay
# Chain of human corticotropin-releasing factor 2a (CRF2a receptor) (human), Q13324 (Q13324 20-411): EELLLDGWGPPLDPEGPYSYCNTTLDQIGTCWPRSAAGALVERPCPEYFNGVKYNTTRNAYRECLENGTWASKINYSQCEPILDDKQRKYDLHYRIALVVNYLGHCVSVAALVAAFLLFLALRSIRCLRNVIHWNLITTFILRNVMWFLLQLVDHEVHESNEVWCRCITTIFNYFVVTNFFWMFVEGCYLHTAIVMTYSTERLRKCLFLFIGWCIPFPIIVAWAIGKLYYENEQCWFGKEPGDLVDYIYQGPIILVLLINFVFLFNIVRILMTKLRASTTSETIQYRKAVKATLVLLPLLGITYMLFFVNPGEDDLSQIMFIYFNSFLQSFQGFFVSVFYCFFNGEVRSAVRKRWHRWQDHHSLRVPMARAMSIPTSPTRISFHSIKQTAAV
Binder,Emax (% I) [1],EC50 [nM] (cAMP) [2]
B1,13%,1.34 nM
B2,5%,1.28 nM
